{"source": "patent US20140234868A1", "about": "“USE FOR GLYCOLIPOPROTEIN GINTONIN, ISOLATED AND IDENTIFIED FROM GINSENG, AS A NATURAL MEDICAL-PLANT DERIVED LIGAND” (KONKUK UNIVERSITY INDUSTRIAL COOPERATION CORP., priority 2011, published 2014)", "molecules": {"B1": {"name": "gintonin: ginseng-derived glycolipoprotein; structural protein of ginseng major latex-like protein (MLP151) and ribonuclease-like storage proteins; crude gintonin used in tests (protein)", "chain 1": "MGLTGKLICQTGIKSDGDVFHELFGTRPHHVPNITPANIQGCDLHEGEFGKVGSVVIWNYSIDGNAMIAKEEIVAIDEEDKSVTFKVVEGHLFEEFKSIVFSVHVDTKGEDNLVTWSIDYEKLNESVKDPTSYLDFLLSVTRDIEAHHLPK", "chain 2": "RSDYPWAMFALRLQWPAGFCEVNNACDTKSLLNTFTIHGLYPYNAKGTPALYCDGTAFDVNSVSDFLAEMHLAWPSHETNTEDIQFWEHEWKKHGRCSEALLKQTDYFRTALAFRKAFDIVGLLNQEGIYPNNDLYRPKMIKEAIKKHLNAVPEIDFTKNENSEYVLTDINVCVNQQATRFVDCPTDDATDDYRLKFVRLPSKMKFADPRTNSII"}}, "key": {"[1]": {"tested_on": "GPR87, GPR40, GPR41, GPR43 and GPR120", "assay": "Intracellular free Ca2+ in B103 cells expressing other orphan GPCRs and fatty acid receptors", "type": "cell-based", "conditions": "B103 cells expressing the other receptors (GPR87, GPR40, GPR41, GPR43, GPR120)", "description": "Optionally, the method may further comprise (8) pre-treating the suspended B103 cells with LPA receptor antagonists and LPA receptor-mediated signaling-relevant drugs (e.g., pertussis toxin, PLC inhibitors, IP3 receptor antagonists) to examine whether the cells decrease or increase in intracellular free Ca^2+, prior to treatment with gintonin; (9) performing site-directed mutagenesis to identify an amino acid of LPA receptors with which gintonin interact to activate the LPA; and (10) examining whether gintonin activates orphan GPCRs including GPR35 and GPR87, and free fatty acid GPCRs including GPR40, GPR41, GPR43 and GPR120, all known for activation by LPA.\nIn addition, GPR35 (Oka et al., Biochem Biophys Res Commun. 395, 232-237, 2010) and GPR87 (Tabata et al., Biochem Biophys Res Commun. 363, 861-866, 2007), both known as orphan GPCRs reacting with LPA, and GPR40, GPR41, GPR43 and GPR120 (Hirasawa et al., Biol Pharm Bull. 31, 1847-1851, 2008), all known as fatty acid receptors reacting with free fatty acids, were expressed in B103 cells when gintonin activity was tested."}, "HUVECs": {"tested_on": "HUVECs", "assay": "Scratch wound healing in HUVEC monolayers", "type": "cell-based, human", "conditions": "gintonin 30 μg/ml, 20 hrs", "method": "In this Example, an examination was made of the effect of gintonin on wound healing. For use in this examination, HUVECs were cultured in an M199 medium supplemented with heat-inactivated 20% FBS, […] basic fibroblast growth factor, 5 units/ml heparin, and streptomycin and penicillin in a 5% […] incubator.\nHUVECs (2.5×10^5/well) were seeded to 24-well plates, and incubated for 24 hrs, and then for an additional 6 hrs in M199 supplemented with 1% FBS. Single wounds were made in the confluent monolayers by dragging a sterile 200-μl pipette tip across the monolayer to create a cell-free path. Floating cells were washed off twice with M199 supplemented with 1% FBS. The adherent cells were incubated with gintonin (30 μg/ml). Before and after treatment with gintonin, HUVECs in each well were observed and photographed (100×) using an inverted fluorescence microscope (AxioVert200; Carl Zeiss, Germany). Morphological comparison with non-treated cells was made.\nIn the assay for wound healing of gintonin, uncovered wound areas were measured using AxioVision 4 (Carl Zeiss, Germany) (FIG. 26A), and the time process of covering the scratch wound areas was monitored in the presence or absence of gintonin (FIG. 25B). In addition, uncovered scratch areas of gintonin-treated groups were compared with that of the control and expressed as % of that of the control (FIGS. 26C and D)."}, "[2]": {"tested_on": "LPA receptor-null B103 cells (empty vector)", "assay": "Intracellular free Ca2+ (Fura-2AM) in B103 cells transfected with empty vector", "type": "cell-based, rat", "conditions": "gintonin 1 μg/ml; empty vector B103 cells", "description": "LPA family receptors are endogenous to cells of most organs. B103 rat neuroblastoma cells, known as LPA receptor-null cells (Valentine et al., Biochim Biophys Acta 1780. 597-605) were transiently transfected with a plasmid (vector) carrying one of genes coding for LPA1(edg-2), LPA2(edg-4), LPA3(edg-7), LPA4, LPA5 and LPA6 receptors or a plasmid carrying none of them (empty vector). Two or three days after transfection, the cells are suspended, and made permeable. Then, the permeable cells are treated with Fura-2AM, a fluorescent dye binding to calcium, and then with gintonin, followed by spectrofluorephotometry to examine whether gintonin induces an increase in intracellular free Ca^2+ level. […]\nBriefly, Fura 2-AM loaded cells were diluted with an experimental medium to a final density of 2˜4×10^6 cells/mL, and transferred to polystyrene cuvettes (Elkay Ultra-VU). […] Emission was detected at 510 nm Excitation and emission slit widths were 5 nm Background calibration was performed as described by Jørgensen et al. […]"}}, "data": [{"molecule": "B1", "values": [{"measurement": "increase of intracellular calcium level", "setting": "[1]", "value": "not act on the other receptors"}, {"measurement": "covering of scratch wound area", "setting": "HUVECs", "value": "covered the wound area"}, {"measurement": "increase in intracellular calcium level", "setting": "[2]", "value": "22.7 ± 4.1", "unit": "nM"}]}]}
